Where no end group is shown, it is not given here. [ ]: non-standard residue; d: D form. The star is where a group is joined. Biotin = O=C1N[C@H]2[C@H](CS[C@H]2CCCCC(=O)*)N1; Ahx = NCCCCCC(=O)O

The term Ki denotes the equilibrium dissociation constant of an inhibitor or competing ligand from its target.

In experiment [1] the target is T1, CAL PDZ domain (CALP) (UniProt Q9HD26 278-362). The experiment can be described thus: fluorescence polarization competition. (Polarisation of emitted light reports the rotation of a fluorescent probe.)
Experiment [2] has as its target T1, CAL PDZ domain (CALP). The experiment can be described thus: fluorescence polarization competition with a labeled peptide. The procedure:
(§1) The experimental inhibitory constants of top- and poorly-ranked peptide sequences from the K* CAL-CFTR design were experimentally determined. […] The corresponding N-terminally acetylated peptides were purchased from NEO Bio-Science (Cambridge, Mass.) and the Kᵢ values for the peptides were detected using fluorescence polarization. Briefly, the CAL PDZ domain was incubated with a labeled peptide of known binding affinity. Each peptide inhibitor was serially diluted and the protein-peptide mixture was added to each dilution. Finally, the amount of competitive inhibition was tracked using residual fluorescence polarization.
(§2) The Kᵢ value for each peptide hexamer was determined using fluorescence polarization.

Experiment [3] has as its target T1, CAL PDZ domain (CALP). The experiment can be described thus: fluorescence polarization competition; reference: iCAL35 with CAL. As for the experimental part: as §1, §2
Experiment [4] concerns the target T1, CAL PDZ domain (CALP). In words: fluorescence polarization competition; reference: wild-type CFTR sequence with CAL. As for the experimental part: as §1, §2
Experiment [5] addresses T1, CAL PDZ domain (CALP). The experiment can be described thus: calculated from Ki values (FP); reference: the same peptide with the NHERF PDZ domains.
The target of experiment [6] is T1, CAL PDZ domain (CALP). In words: calculated from Ki values (FP); reference: the same peptide with TIP-1.
Experiment [7] has as its target T2, Tax-interacting protein-1 (TIP-1), recombinant, tag cleaved (UniProt O14907 1-124).
T2 construct: Used for FP and crystallization; also called TIP-1 PDZ domain
T2 sequence (looked up): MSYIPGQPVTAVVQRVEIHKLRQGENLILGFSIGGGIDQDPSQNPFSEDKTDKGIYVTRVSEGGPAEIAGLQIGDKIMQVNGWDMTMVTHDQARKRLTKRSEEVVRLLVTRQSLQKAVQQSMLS
The experiment can be described thus: FP displacement assay, reporter F*-iCAL36.

Experiment [8] deals with T1, CAL PDZ domain (CALP). In words: calculated from Ki values (FP); reference: the same peptide with N2P2.
The target of experiment [9] is T1, CAL PDZ domain (CALP). In words: FP competition assay.
Experiment [10] has as its target T1, CAL PDZ domain (CALP). In words: fluorescence polarization; reference: iCAL42 with the CAL PDZ domain.
Experiment [11] addresses T2, Tax-interacting protein-1 (TIP-1), …. The experiment can be described thus: FP displacement assay. The procedure:
(§3) For TIP-1 peptide array experiments, His₁₀ tagged (uncleaved) protein was used to facilitate quantitation.
In order to quantitate the impact of the P⁻⁵ Leu substitution and to assess inhibitory potential at high peptide concentrations, FP displacement assays were performed.

In experiment [12] the target is T3, His10 tagged (uncleaved) TIP-1 (UniProt O14907 1-124).
T3 construct: also called TIP-1 (peptide array experiments); not shown: N-terminal His10 tag
T3 sequence: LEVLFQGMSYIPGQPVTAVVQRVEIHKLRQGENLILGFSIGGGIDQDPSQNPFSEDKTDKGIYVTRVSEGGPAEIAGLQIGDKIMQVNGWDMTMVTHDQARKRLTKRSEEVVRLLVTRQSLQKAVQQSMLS
In words: CombLib peptide array.
Description: as §3

Experiment [13] addresses T1, CAL PDZ domain (CALP). In words: calculated from Ki values (FP); reference: the same peptide with the highest affinity alternative among the NHERF and TIP-1 PDZ domains.

B1: iCAL35 (peptide)
peptide: Ac-WQTSII
notes: the corresponding N-terminally acetylated peptides were bought; also called WQTSII; best known peptide hexamer
In the experiment with CAL PDZ domain (CALP) [1], B1 gave a Ki of 14.8 µM. In turn, Ac-WQVTRV (also called WQVTRV) [kCAL01] yielded a Ki in the experiment with CAL PDZ domain (CALP) [2] of 2.1 µM. The “fold improvement over iCAL35” value in the experiment with CAL PDZ domain (CALP) [3] was 7 fold. The molecule further had a fold higher affinity with CAL PDZ domain (CALP) [4] of 331 fold. Consider ANSRWPTSII (also called PRC 36; iCa136) [iCAL36], for which the ΔΔG is -3.3 kcal/mol with CAL PDZ domain (CALP) [5] and 1 kcal/mol with CAL PDZ domain (CALP) [6]. For the molecule ANGLMQTSKL [somatostatin receptor subtype 5 (SSR5) C-terminal peptide], the Ki in experiment [7] turned out to be 130 µM. Also, the ΔΔGCAL-best with CAL PDZ domain (CALP) [8] is 0.1 kcal/mol.

B2: BT-iCAL42 (peptide)
peptide: Biotin-W[dR]FKKANSRLPTSII
notes: also called biotinylated analog of iCAL42
Turning to B2, in the experiment with CAL PDZ domain (CALP) [9], the Ki came to 9.2 µM.

B3: F*-iCAL42 (peptide)
peptide: {Fluorescein-Ahx}-ANSRLPTSII
notes: also called N-terminally fluoresceinated version of iCAL42
On to B3, for which the “fold enhancement in CAL affinity” value in the experiment with CAL PDZ domain (CALP) [10] was 5 fold. In the case of ANSRAPTSII [P^-5 alanine mutant of iCAL36 (ANSRAPTSII)], in experiment [11], the binding result is “no binding”. ANSRLPTSII (also called unlabeled iCAL42) [iCAL42]: the figures for the binding result in [12] and in experiment [11] were “no binding” and “no binding (tested: up to millimolar peptide concentrations)”, respectively. Also, the ΔΔG with CAL PDZ domain (CALP) [13] is -2.5 kcal/mol.

These data come from patent US20150250848A1 (TRUSTEES OF DARTMOUTH COLLEGE, published 2015).
